According to patent publication US20170088632A1 (OMEROS, published 2017):

How the values were obtained:
human MASP-2 [1] = biological target: T1, human MASP-2 (human, UniProt O00187 16-686); experiment: cell-based or functional assay
human MASP-2 [2] = biological target: T1, human MASP-2; experiment: cell-based or functional assay; remark: listed apart in the source
human MASP-2 [3] = biological target: T1, human MASP-2; experiment: cell-based or functional assay; remark: listed apart in the source
human MASP-2 [4] = biological target: T1, human MASP-2; experiment: titration ELISA on MASP-2 (10 µg/ml)
human MASP-2 [5] = biological target: T1, human MASP-2; experiment: cell-based or functional assay; remark: listed apart in the source
human MASP-2 [6] = biological target: T1, human MASP-2; experiment: cell-based or functional assay; remark: listed apart in the source
[7] = biological target: T2, African Green monkey MASP-2 (in African Green monkey serum) (African Green monkey); experiment: cell-based or functional assay
[8] = biological target: T3, human MASP-2A (catalytically inactive human MASP-2, Ser618 to Ala618) (human, UniProt O00187 16-686); experiment: SPR (Biacore), MASP-2A amine coupled to CM5 chip, scFv monomer in solution
T3 construct: the ELISA and Biacore methods say only 'MASP-2A', so a tag may have been present; also called huMASP2A; huMASP-2A
T3 sequence (O00187 16-686 S633A): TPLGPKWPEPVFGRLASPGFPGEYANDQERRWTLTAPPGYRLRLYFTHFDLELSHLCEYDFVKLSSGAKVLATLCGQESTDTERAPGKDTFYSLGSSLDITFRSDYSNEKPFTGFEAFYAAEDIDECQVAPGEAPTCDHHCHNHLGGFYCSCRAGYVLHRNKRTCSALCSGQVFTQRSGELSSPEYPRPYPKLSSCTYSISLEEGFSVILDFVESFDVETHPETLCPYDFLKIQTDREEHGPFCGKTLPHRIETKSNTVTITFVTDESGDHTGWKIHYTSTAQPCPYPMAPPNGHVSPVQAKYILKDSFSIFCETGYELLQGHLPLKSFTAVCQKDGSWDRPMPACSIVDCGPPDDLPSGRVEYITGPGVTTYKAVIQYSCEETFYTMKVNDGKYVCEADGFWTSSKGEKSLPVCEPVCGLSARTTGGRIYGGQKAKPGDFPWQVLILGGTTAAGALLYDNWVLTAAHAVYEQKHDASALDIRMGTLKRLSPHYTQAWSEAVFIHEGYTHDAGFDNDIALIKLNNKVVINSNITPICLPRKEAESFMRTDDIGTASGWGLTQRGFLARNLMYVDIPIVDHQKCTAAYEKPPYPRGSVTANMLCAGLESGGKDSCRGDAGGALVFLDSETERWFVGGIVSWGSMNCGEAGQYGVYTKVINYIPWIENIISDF

[9] = biological target: T2, African Green monkey MASP-2 (in African …); experiment: cell-based or functional assay; remark: listed apart in the source
[10] = biological target: rat MASP-2 (in rat serum) (rat, UniProt Q9JJS8 20-685); experiment: cell-based or functional assay
rat MASP-2 (in rat serum), sequence (Q9JJS8 other isoform, or with tags, fused parts or gaps limits assumed): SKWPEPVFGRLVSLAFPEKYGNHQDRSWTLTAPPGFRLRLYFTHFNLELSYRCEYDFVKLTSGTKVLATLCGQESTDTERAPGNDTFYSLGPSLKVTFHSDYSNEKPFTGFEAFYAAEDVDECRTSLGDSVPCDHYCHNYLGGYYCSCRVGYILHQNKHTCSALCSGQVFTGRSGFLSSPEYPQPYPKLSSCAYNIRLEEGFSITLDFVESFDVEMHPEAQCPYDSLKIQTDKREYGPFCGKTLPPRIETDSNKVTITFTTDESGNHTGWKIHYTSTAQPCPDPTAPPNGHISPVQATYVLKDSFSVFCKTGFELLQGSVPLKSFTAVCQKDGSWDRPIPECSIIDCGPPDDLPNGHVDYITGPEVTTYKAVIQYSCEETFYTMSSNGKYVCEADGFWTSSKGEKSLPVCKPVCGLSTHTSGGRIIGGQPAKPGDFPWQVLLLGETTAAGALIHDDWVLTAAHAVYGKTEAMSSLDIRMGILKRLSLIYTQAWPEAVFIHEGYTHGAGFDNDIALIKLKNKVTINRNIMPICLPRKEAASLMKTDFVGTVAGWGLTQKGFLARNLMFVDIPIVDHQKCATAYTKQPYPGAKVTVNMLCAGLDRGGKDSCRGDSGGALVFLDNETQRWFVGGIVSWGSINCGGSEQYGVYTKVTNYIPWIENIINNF

T1 sequence (O00187 16-686): as the sequence (O00187 16-686 S633A) above, with A618S counted along it

B1: 17D20 mother clone, wild type IgG4 format (antibody, V domains shown)
VH: QVTLKESGPVLVKPTETLTLTCTVSGFSLSRGKMGVSWIRQPPGKALEWLAHIFSSDEKSYRTSLKSRLTISKDTSKNQVVLTMTNMDPVDTATYYCARIRAGGIDYWGQGTLVTVSS
VL: QPVLTQPPSVSVSPGQTASITCSGDKLGDKFAYWYQQKPGHSPVLVIYQDNKRPSGIPGRFSGSNSGNTATLTISGTQAMDEADYYCQAWDSSTAVFGTGTKVTVLA
For B1, the “C4b deposition in 90% human serum, IC50 relative to the C3b deposition assay” value (human MASP-2 [1]) was ~3 fold, the “C3 convertase assay using 1% human serum, IC50 (first experiment)” value (human MASP-2 [2]) was 7.39 nM and the “C3 convertase assay using 1% human serum, IC50 (second experiment)” value (human MASP-2 [2]) was 10.3 nM. The “C3b deposition assay in 1% human serum, IC50” value (human MASP-2 [3]) was 22 nM.

B2: scFv mutagenesis clone #35 of 17D20 (scFv)
scFv: QVTLKESGPVLVKPTETLTLTCTVSGFSLSRGKMGVSWIRQPPGKALEWLAHIFSSDEKSYRTSLKSRLTISKDTSKNQVVLTMTNMDPVDTATYYCARIRRGGIDYWGQGTLVTVSSKLSGSASAPKLEEGEFSEARVQPVLTQPPSVSVSPGQTASITCSGDKLGDKFAYWYQQKPGHSPVLVIYQDNKRPSGIPGRFSGSNSGNTATLTISGTQAMDEADYYCQAWDSSTAVFGTGTKVTVLAAAGSEQKLISEEDLNSHHHHHH
notes: the mother scFv entry is used with this change; also called 17D20md#35 (monomer); 17D20md35
B2 gave a Kd (human MASP-2 [4]) of 1.2 nM.

B3: 17N16 mother clone, wild type IgG4 format (antibody, V domains shown)
VH: QVQLQQSGPGLVKPSQTLSLTCAISGDSVSSTSAAWNWIRQSPSRGLEWLGRTYYRSKWYNDYAVSVKSRITINPDTSKNQFSLQLNSVTPEDTAVYYCARDPFGVPFDIWGQGTMVTVSS
VL: SYVLTQPPSVSVAPGQTARITCGGNNIGSKNVHWYQQKPGQAPVLVVYDDSDRPSGIPERFSGSNSGNTATLTVSRVEAGDEADYYCQVWDTTTDHVVFGGGTKLTVL
B3 was tested, and the “C3b deposition assay in 90% NHS, IC50” value (human MASP-2 [1]) was 15 nM, the “C3 convertase assay using 1% human serum, IC50 (first experiment)” value (human MASP-2 [2]) was 5.45 nM and the “C3 convertase assay using 1% human serum, IC50 (second experiment)” value (human MASP-2 [2]) was 3.09 nM. For the same binder, the “C3b deposition assay in 1% human serum, IC50” value (human MASP-2 [3]) was ~20 nM.

B4: scFv mother clone 9P13 (scFv)
scFv: QVQLQQSGPGLVKPSQTLSLTCAISGDSVSSNSAAWNWIRQSPSRGLEWLGRTYYRSKWYNDYAVSVKSRITINPDTSKNQFSLQLNSVTPEDTAVYYCARDPFGVPFDIWGQGTMVTVSSKLSGSASAPKLEEGEFSEARVSYELTQLPSVSVAPGQTARVTCGGNNIRSKNVHWYQQKPGQAPVLVVYDDTDRPSGIPERFSGSNSGNTATLTVSRVEAGDEADYYCQVWDTTTDHVVFGGGTKVTVLAAAGSEQKLISEEDLNSHHHHHH
For B4, the “Inhibitory activity in Human Serum IC50 (C3b deposition, 0.5% human serum)” value (human MASP-2 [5]) was 28.9 nM, the “Functional IC50, C3b deposition, human serum Exp #1” value (human MASP-2 [6]) was 28.9 nM and the “Functional IC50, C3b deposition, human serum Exp #2” value (human MASP-2 [6]) was 120 nM. The “Functional IC50, C3b deposition, human serum Exp #3” value (human MASP-2 [6]) was 17.3 nM, the “Functional IC50, C3b deposition, human serum Exp #4” value (human MASP-2 [6]) was 24.3 nM and the “Functional IC50, C3b deposition, non-human primate serum Exp #1” value [7] was 99.3 nM. For the same binder, the “Functional IC50, C3b deposition, non-human primate serum Exp #2” value [7] was 77.1 nM and the Kd [8] was 220 nM.

B5: MoAb #5 (OMS645), 17D20_3521N11 IgG4 (antibody)
heavy: not shown
light: QPVLTQPPSLSVSPGQTASITCSGEKLGDKYAYWYQQKPGQSPVLVMYQDKQRPSGIPERFSGSNSGNTATLTISGTQAMDEADYYCQAWDSSTAVFGGGTKLTVLGQPKAAPSVTLFPPSSEELQANKATLVCLISDFYPGAVTVAWKADSSPVKAGVETTTPSKQSNNKYAASSYLSLTPEQWKSHRSYSCQVTHEGSTVEKTVAPTECS
In the case of B5, the “African Green Monkey C3 assay IC50” value [9] is reported as 16 nM and the “Inhibition of Rat C3b IC50” value [10] is reported as 500 nM.

B6: MoAb #6 (OMS646), 17D20_3521N11 IgG4 mutant (S228P hinge) (antibody)
heavy: not shown
light: B5 light
For B6, the “African Green Monkey C3 assay IC50” value [9] was 14 nM and the “Inhibition of Rat C3b IC50” value [10] was > 500 nM.
